Legend:
[1] = test system: chronic myeloid leukaemic (CML) cells; assay: Proliferation of chronic myeloid leukaemic (CML) cells, [3H] thymidine incorporation; type: cell-based, human
Protocol: (b ) Proliferation of chronic myeloid leukaemic (CML) cells: Primarily CML cells from one patient were selected for their ability to incorporate [^3 H] thymidine in response to IL-3 as described (Lopez el. al., supra ). Briefly, CML cells were placed at 2×10^5 cells/mL fresh medium containing different concentrations of IL-3. Cells were incubated for 24 hours in a flat bottom 96-well NUNCLON plates (2×10^4 cells/well) before being pulsed with [^3 H] thymidine (0.5 μCi/well) for four more hours at 37° C. The cells were then harvested onto glass filters with a Titertek automated cell harvester and counted into a Beckman liquid scintillation counter. Data are expressed in cpm, and each point is the mean of six replicates.

[2] = test system: monocytes; assay: Stimulation of human monocyte adherence (51Cr adhesion assay); type: cell-based
Protocol: (a) Monocyte purification. Monocytes were purified from the peripheral blood of normal donors, obtained from the Adelaide Red Cross Transfusion Service, as previously described (Elliott et. al., 1990, J. Immunol., 145, 167-171). In brief, mononuclear cells were prepared by centrifugation of whole blood on lymphoprep cushions (Nyegaard, Oslo, Norway) and washed twice in HBSS, 0.02% EDTA, 0.1% heat inactivated FCS (Flow Laboratories, North Ryde, Australia) and monocytes were purified in a Beckman J-6M/E elutriator using the Sanderson chamber, a flow rate of 12 ml/min and a constant rotor speed of 2050 rpm. Cells remaining in the chamber after 30 min were collected, washed twice in HBSS, and used immediately. Using these methods, monocyte purity as assessed by morphology and nonspecific-esterase staining was always >90% and usually >95%. The major contaminating cell types were lymphocytes and granulocytes (principally basophils).
(b) Adhesion assay. Adhesion was measured by an isotopic method essentially as described (Elliott et. al., supra). In brief, purified monocytes (0.5 to 1×10^8) were resuspended in 1 ml RPMI 1640 with 0.1% FCS and antibiotics and incubated for 30 min at 37° C. with 500 μCi^51 Cr in the form of sodium chromate (Amersham International., Buckinghamshire, England). Cells were washed thrice in RPMI 1640 and resuspended in culture medium consisting of RPMI 1640, 10% FCS, antibiotics, and 0.2% sodium bicarbonate. For measurement of adhesion, 1 to 2.5×10^5 monocytes were aliquotted per well in 96-well microtitre plates (Nunc, Karnstrup, Denmark) together with stimuli or control medium to a total volume of […], and incubated for the indicated periods. […] At harvest, samples of supernatant were taken to assess spontaneous ^51 Cr release (usually <10% of cell-associated radioactivity), wells were washed three times with RPMI 1640 at 37° C., and residual adherent cells lysed in 10 mM Tris-hydrochloride, and 1% Nonident p40 detergent (Sigma). Lysates were transferred to tubes and counted in a Packard auto-gamma 5650. Percent adherence was calculated according to the formula: [formula]

[3] = biological target: T1, IL-3R α chain and β chain (Homo sapiens, UniProt P26951+P32927); assay: Competition for 125I-IL-3 binding to reconstituted IL-3 high affinity receptor (α and β chains) in COS cells
T1 construct: amplify the complete coding region of the IL-3R alpha chain; also to amplify the coding region of the IL-3R α chain; expressed in transfected cells; host or cells: COS cells (pCDM8 vector, electroporation)
T1 sequence (P26951 19-378): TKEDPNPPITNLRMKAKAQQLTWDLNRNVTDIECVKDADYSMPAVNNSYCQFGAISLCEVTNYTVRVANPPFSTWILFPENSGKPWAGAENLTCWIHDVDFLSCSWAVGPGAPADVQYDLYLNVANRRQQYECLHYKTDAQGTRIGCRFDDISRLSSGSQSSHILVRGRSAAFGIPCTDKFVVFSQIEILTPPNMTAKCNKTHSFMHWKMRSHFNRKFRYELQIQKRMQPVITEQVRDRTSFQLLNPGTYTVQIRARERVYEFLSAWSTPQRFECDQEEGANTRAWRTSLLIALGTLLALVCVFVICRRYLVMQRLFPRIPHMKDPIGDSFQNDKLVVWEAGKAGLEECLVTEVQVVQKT
T1 sequence (P32927 17-897): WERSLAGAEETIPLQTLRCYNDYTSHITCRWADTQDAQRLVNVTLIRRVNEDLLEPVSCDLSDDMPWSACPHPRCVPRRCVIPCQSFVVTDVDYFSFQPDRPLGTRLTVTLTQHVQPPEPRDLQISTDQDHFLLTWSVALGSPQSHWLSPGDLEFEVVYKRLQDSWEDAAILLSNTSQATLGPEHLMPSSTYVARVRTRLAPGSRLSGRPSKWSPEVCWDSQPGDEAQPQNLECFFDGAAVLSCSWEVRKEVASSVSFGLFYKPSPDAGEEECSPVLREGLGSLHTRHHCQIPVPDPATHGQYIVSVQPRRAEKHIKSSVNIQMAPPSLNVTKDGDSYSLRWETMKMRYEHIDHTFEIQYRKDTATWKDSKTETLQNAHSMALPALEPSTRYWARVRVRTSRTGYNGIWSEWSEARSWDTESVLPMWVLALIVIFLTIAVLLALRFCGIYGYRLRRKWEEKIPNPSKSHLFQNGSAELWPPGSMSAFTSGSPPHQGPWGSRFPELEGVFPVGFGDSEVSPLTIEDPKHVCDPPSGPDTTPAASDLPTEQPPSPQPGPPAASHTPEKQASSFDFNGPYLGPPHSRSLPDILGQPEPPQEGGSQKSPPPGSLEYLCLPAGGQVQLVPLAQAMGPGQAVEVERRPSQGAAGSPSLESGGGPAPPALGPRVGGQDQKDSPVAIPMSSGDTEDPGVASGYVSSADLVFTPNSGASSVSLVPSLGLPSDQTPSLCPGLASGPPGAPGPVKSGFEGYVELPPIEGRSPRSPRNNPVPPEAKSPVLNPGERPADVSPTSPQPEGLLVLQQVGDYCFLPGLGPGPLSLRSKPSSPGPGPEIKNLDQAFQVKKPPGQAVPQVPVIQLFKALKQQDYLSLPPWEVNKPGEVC
Description: PolyA+ RNA was isolated from the human cord blood cell line KMT2. Oligo dT primed double stranded cDNA was synthesised and used as template for PCR amplification. The PCR primers were designed to amplify the complete coding region of the IL-3R alpha chain and also to amplify the coding region of the […]. The PCR products were cloned into the vector pGEM-2 for sequence verification, and then into the eukaryotic expression vector, pCDM8. The […]-containing plasmid was transfected into COS cells by electroporation, either on its own or in conjunction with the […], and after two days the cells were used for binding studies.

[4] = concentration of IL-3 mutant giving 50% of biological activity compared to that of wild type IL-3

B1: M37: human IL-3 mutant, Asp 101 replaced by Ala and Lys 116 by Val (protein, UniProt P08700 20-152, looked up, variant D101A K116V)
Interleukin-3: APMTQTTPLKTSWVNCSNMIDEIITHLKQPPLPLLDFNNLNGEDQDILMENNLRRPNLEAFNRAVKSLQNASAIESILKNLLPCLPLATAAPTRHPIHIKAGDWNEFRRKLTFYLVTLENAQAQQTTLSLAIF
- stimulation of CML cell proliferation ([1]; FIG. 2, FIG. 8): more potent than the wild type IL-3
- Relative biological activity, PROLIFERATION CML [1, 4]: 1694
- increase in biological activity versus wild type ([1]; summary statement over the functional assays of the Table (colonies, CML, monocyte)): 15-20 fold
- stimulation of monocyte adherence ([2]; FIG. 3): more potent than the wild type IL-3
- Relative biological activity, MONOCYTE [2, 4]: 2100
- fold higher affinity than wild type IL-3 ([3]; COS cells transfected with IL-3R α chain and β chain cDNAs, E. coli produced protein): 15 fold
- binding to cotransfected α and β chains ([3]; FIG. 7): higher affinity
